Results published in publication PMC11793155.

What was measured:
[1] = immunofluorescence, confocal microscopy; conditions: glycan lost; control: untreated cells
[2] = cycloheximide chase 0-12 h, western blot; conditions: glycan lost; control: CHX alone

B1: ACTRIIB (activin receptor type IIB, ACVR2B): tunicamycin (TM) (protein)
parent chain: MTAPWVALALLWGSLCAGSGRGEAETRECIYYNANWELERTNQSGLERCEGEQDKRLHCYASWRNSSGTIELVKKGCWLDDFNCYDRQECVATEENPQVYFCCCEGNFCNERFTHLPEAGGPEVTYEPPPTAPTLLTVLAYSLLPIGGLSLIVLLAFWMYRHRKPPYGHVDIHEDPGPPPPSPLVGLKPLQLLEIKARGRFGCVWKAQLMNDFVAVKIFPLQDKQSWQSEREIFSTPGMKHENLLQFIAAEKRGSNLEVELWLITAFHDKGSLTDYLKGNIITWNELCHVAETMSRGLSYLHEDVPWCRGEGHKPSIAHRDFKSKNVLLKSDLTAVLADFGLAVRFEPGKPPGDTHGQVGTRRYMAPEVLEGAINFQRDAFLRIDMYAMGLVLWELVSRCKAADGPVDEYMLPFEEEIGQHPSLEELQEVVVHKKMRPTIKDHWLKHPGLAQLCVTIEECWDHDAEARLSAGCVEERVSLIRRSVNGTTSDCLVSLVTSVTNVDLPPKESSI
- localisation_or_trafficking [1]: decreases

B2: ACTRIIB (activin receptor type IIB, ACVR2B): tunicamycin (TM) + CHX (protein)
parent chain: MTAPWVALALLWGSLCAGSGRGEAETRECIYYNANWELERTNQSGLERCEGEQDKRLHCYASWRNSSGTIELVKKGCWLDDFNCYDRQECVATEENPQVYFCCCEGNFCNERFTHLPEAGGPEVTYEPPPTAPTLLTVLAYSLLPIGGLSLIVLLAFWMYRHRKPPYGHVDIHEDPGPPPPSPLVGLKPLQLLEIKARGRFGCVWKAQLMNDFVAVKIFPLQDKQSWQSEREIFSTPGMKHENLLQFIAAEKRGSNLEVELWLITAFHDKGSLTDYLKGNIITWNELCHVAETMSRGLSYLHEDVPWCRGEGHKPSIAHRDFKSKNVLLKSDLTAVLADFGLAVRFEPGKPPGDTHGQVGTRRYMAPEVLEGAINFQRDAFLRIDMYAMGLVLWELVSRCKAADGPVDEYMLPFEEEIGQHPSLEELQEVVVHKKMRPTIKDHWLKHPGLAQLCVTIEECWDHDAEARLSAGCVEERVSLIRRSVNGTTSDCLVSLVTSVTNVDLPPKESSI
- degradation_or_half_life [2]: decreases
